Data: paper PMC11770335, “Transcriptome-scale analysis uncovers conserved residues in the hydrophobic core of the bacterial RNA chaperone Hfq required for small regulatory RNA stability”

Legend:
Settings in all cases: protein: recombinant; chain copies: 6; single strand
Hfq G34A [1] = target: T1, Hfq G34A (Escherichia coli, UniProt P0A6X3 1-102, G34A); test: ITC; no Mg2+ listed; N 0.75 RNA/hexamer; ITC: 20 mM Tris-HCl pH 7.5, 100 mM NaCl, 20 mM KCl, 30°C; plus 5 mM MgCl2 for U6; Hfq hexamer 10-18 µM in cell
Hfq V22A [2] = target: T2, Hfq V22A (Escherichia coli, UniProt P0A6X3 1-102, V22A); test: ITC; no Mg2+ listed; N 1.43 RNA/hexamer; ITC: 20 mM Tris-HCl pH 7.5, 100 mM NaCl, 20 mM KCl, 30°C; plus 5 mM MgCl2 for U6; Hfq hexamer 10-18 µM in cell
Hfq WT [3] = target: T3, Hfq WT (Escherichia coli, UniProt P0A6X3 1-102); test: ITC; no Mg2+ listed; N 1.31 RNA/hexamer; ITC: 20 mM Tris-HCl pH 7.5, 100 mM NaCl, 20 mM KCl, 30°C; plus 5 mM MgCl2 for U6; Hfq hexamer 10-18 µM in cell
Hfq V22A [4] = target: T2, Hfq V22A; test: X-ray crystallography; one pA4 traced at distal face (Methods says proximal); 0.2 M LiSO4, 0.05 M zinc acetate, Bis-Tris pH 7.5; ITC: 20 mM Tris-HCl pH 7.5, 100 mM NaCl, 20 mM KCl, 30°C; plus 5 mM MgCl2 for U6; Hfq hexamer 10-18 µM in cell
Hfq WT [5] = target: T3, Hfq WT; test: ITC; 5 mM MgCl2; N 0.96 RNA/hexamer; second weaker event offset; ITC: 20 mM Tris-HCl pH 7.5, 100 mM NaCl, 20 mM KCl, 30°C; plus 5 mM MgCl2 for U6; Hfq hexamer 10-18 µM in cell
Hfq G34A [6] = target: T1, Hfq G34A; test: ITC; 5 mM MgCl2; N 0.83 RNA/hexamer; second weaker event offset; ITC: 20 mM Tris-HCl pH 7.5, 100 mM NaCl, 20 mM KCl, 30°C; plus 5 mM MgCl2 for U6; Hfq hexamer 10-18 µM in cell
Hfq V22A [7] = target: T2, Hfq V22A; test: ITC; 5 mM MgCl2; N 1.02 RNA/hexamer; second weaker event offset; ITC: 20 mM Tris-HCl pH 7.5, 100 mM NaCl, 20 mM KCl, 30°C; plus 5 mM MgCl2 for U6; Hfq hexamer 10-18 µM in cell

Work on AAAAAAAAAAAAAAAAA (ssRNA) [A17] yielded a Kd (Hfq G34A [1]) of 26.3 ± 13.2 nM, a Kd (Hfq V22A [2]) of 10.5 ± 3.4 nM and a Kd (Hfq WT [3]) of 51.5 ± 18 nM.

AAAA (ssRNA) [pA4]: binds (Hfq V22A [4]).

In the case of UUUUUU (ssRNA) [U6], the Kd (Hfq WT [5]) is reported as 42.2 ± 12.8 nM, the Kd (Hfq G34A [6]) is reported as 19.3 ± 8.3 nM and the Kd (Hfq V22A [7]) is reported as 56.6 ± 7.5 nM.
